Measurements: patent publication US12428492B2, “Chimeric antigen receptors that bind to prostate specific membrane antigen” (Albert-Ludwigs-Universitaet Freiburg, priority 2019, dated 2025)

Key:
PSMA-expressing cells = PSMA-expressing cells (Homo sapiens, UniProt Q04609); settings: cited from earlier work
[1] = system: PSMA positive C4-2 and LNCaP tumor cells; assay: Antigen-specific activation (CD69) of CAR expressing Jurkat cells by PSMA positive tumor cells; assay type: cell-based
Description: Panel (C) presents the antigen-specific-activation profile, CAR expressing Jurkat cells were stimulated for 24 h at an 1:1 effector-to-target ratio with either PSMA positive, PD-L1 negative C4-2 tumor cells (PSMA+/PDL1−), or PSMA positive, PD-L1 positive LNCaP tumor cells (PSMA+/PDL1+). As a negative control, CAR cells were co-cultured with PSMA negative DU145 tumor cells (PSMA−). Following 24 h stimulation, cells were harvested and activation profile was assessed by evaluating the percentage of cells that are positive for the activation marker CD69. Statistically significant differences are indicated by ****(P<0.001).
Panel (D) depicts the characterization of employed prostate cancer cell lines. The extent of PSMA target antigen expression (left) and PD-L1 (CD274) expression (right) was assessed on C4-2, LNCaP and DU145 prostate cell lines. For flow cytometric analysis, cells were either stained with 3/F11 1 antibody (anti-PSMA) or an anti-CD274 antibody. UT, untransduced T cells; PD-L1, Programmed cell death ligand 1; PSMA; prostate specific membrane antigen. As shown in panel D (left), both C4-2 and LNCaP tumor cells express the PSMA antigen while the DU145 is negative for the PSMA antigen. […]
The antigen-specific activation of transduced Jurkat T cells was measured by monitoring the expression of the activation marker CD69 upon antigen stimulation FIG. 9C. […]

PSMA-expressing cells, sequence (Q04609 whole entry): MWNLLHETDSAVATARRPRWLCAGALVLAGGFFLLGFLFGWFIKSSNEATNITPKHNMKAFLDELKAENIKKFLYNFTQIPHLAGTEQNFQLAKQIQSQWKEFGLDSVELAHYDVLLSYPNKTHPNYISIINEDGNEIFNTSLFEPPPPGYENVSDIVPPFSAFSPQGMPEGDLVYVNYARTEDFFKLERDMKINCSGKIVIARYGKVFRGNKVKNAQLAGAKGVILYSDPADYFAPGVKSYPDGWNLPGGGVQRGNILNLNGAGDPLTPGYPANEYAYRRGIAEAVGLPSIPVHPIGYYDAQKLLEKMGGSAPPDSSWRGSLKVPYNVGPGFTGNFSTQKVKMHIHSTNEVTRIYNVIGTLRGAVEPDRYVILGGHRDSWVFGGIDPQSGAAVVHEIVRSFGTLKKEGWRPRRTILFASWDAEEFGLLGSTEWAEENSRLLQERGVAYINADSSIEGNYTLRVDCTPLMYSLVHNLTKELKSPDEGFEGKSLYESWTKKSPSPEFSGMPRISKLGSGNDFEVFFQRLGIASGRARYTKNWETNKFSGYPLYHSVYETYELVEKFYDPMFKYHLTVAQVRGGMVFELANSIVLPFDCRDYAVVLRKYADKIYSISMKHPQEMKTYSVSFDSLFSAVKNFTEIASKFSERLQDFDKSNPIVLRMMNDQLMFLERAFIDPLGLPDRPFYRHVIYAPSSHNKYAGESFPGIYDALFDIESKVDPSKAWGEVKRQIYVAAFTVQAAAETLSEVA

B1: A5: single-chain variable fragment generated by phage display from mAb 3/A12; SEQ ID NO:42 (protein, listed as Mus musculus)
scFv: DVKLVESGGGLVKPGESLKLSCIASGFTFSDYYMYWVRQTPEKRLEWVAIISDGGYYTYYSDIIKGRFTISRDNAKNNLYLQMSSLKSEDTAMYYCTRGFPLLRHGAMDYWGLGTSVTVSSGGGGSGGGGSGGGGSDIQMTQSPKFMSTSVGDRVSVTCKASQNVDTNVAWYQQKPGQSPKALIYSASYRYSDVPDRFTGSESGTDFTLTISNVQSEDLAEYFCQQYDSYPYTFGGGTKLEIK
modifications: murine scFv A5
Kd (PSMA-expressing cells): ~0.033 µM

B2: A5-based CAR: 2nd generation anti-PSMA CAR: scFv A5, Fc IgG1 hinge, transmembrane domain, CD28 costimulatory domain, CD3ζ; SEQ ID NO:39 (protein)
chain: MDFQVQIFSFLLISASVIMSRDVKLVESGGGLVKPGESLKLSCIASGFTFSDYYMYWVRQTPEKRLEWVAIISDGGYYTYYSDIIKGRFTISRDNAKNNLYLQMSSLKSEDTAMYYCTRGFPLLRHGAMDYWGLGTSVTVSSGGGGSGGGGSGGGGSDIQMTQSPKFMSTSVGDRVSVTCKASQNVDTNVAWYQQKPGQSPKALIYSASYRYSDVPDRFTGSESGTDFTLTISNVQSEDLAEYFCQQYDSYPYTFGGGTKLEIKSDPAEPKSPDKTHTCPPCPAPPVAGPSVFLFPPKPKDTLMIARTPEVTCVVVDVSHEDPEVKFNWYVDGVEVHNAKTKPREEQYNSTYRVVSVLTVLHQDWLNGKEYKCKVSNKALPAPIEKTISKAKGQPREPQVYTLPPSRDELTKNQVSLTCLVKGFYPSDIAVEWESNGQPENNYKTTPPVLDSDGSFFLYSKLTVDKSRWQQGNVFSCSVMHEALHNHYTQKSLSLSPGKKDPKFWVLVVVGGVLACYSLLVTVAFIIFWVRSKRSRLLHSDYMNMTPRRPGPTRKHYQAYAAARDFAAYRSLRVKFSRSADAPAYQQGQNQLYNELNLGRREEYDVLDKRRGRDPEMGGKPRRKNPQEGLYNELQKDKMAEAYSEIGMKGERRRGKGHDGLYQGLSTATKDTYDALHMQALPPR
modifications: A5CAR28
CD69-positive cells ([1]; 24 h, 1:1 effector-to-target ratio, C4-2 or LNCaP): about 70% | activation of Jurkat cells upon antigen-specific sensitization ([1]; CD69): massive activation
